# According to doi:10.1101/2020.07.03.182295 (bioRxiv, 2020):
# Biological target: the molecule itself
# Assay: SEC
protein,measurement,value
R54C αA-crystallin (recombinant human) (natural protein) MDVTIQHPWFKRTLGPFYPSRLFDQFFGEGLFEYDLLPFLSSTISPYYRQSLFCTVLDSGISEVRSDRDKFVIFLDVKHFSPEDLTVKVQDDFVEIHGKHNERQDDHGYISREFHRRYRLPSNVDQSALSCSLSADGMLTFCGPKIQTGLDATHAERAIPVSREEKPTSAPSS,binding result,binds
